± gives the uncertainty stated by the source.
B1: Receptor-interacting serine/threonine-protein kinase 2, residues 438 to 518; numbered along this chain, O43353 (parent)
chain: QWIQSKREDIVNQMTEACLNQSLDALLSRDLIMKEDYELVSTKPTRTSKVRQLLDTTDIQGEEFAKVIVQKLKDNKQMGLQ

Variants of: B1
Test: abundance fitness (aPCA) (normalised: wild type 0, dead -1); higher = more abundant; growth selection in yeast, the domain comes from the species named
Settings: Homo sapiens

Row | Variant | abundance fitness
1 | S22D | -0.386 ± 0.15
2 | S22L | -0.057 ± 0.072
3 | S22F | -0.945 ± 0.39
4 | S22R | -1.05 ± 0.13
5 | S22I | 0.565 ± 0.49
6 | G61D | -0.022 ± 0.14
7 | G61Q | -0.243 ± 0.094
8 | K49T | -0.761 ± 0.22
9 | K49W | -0.722 ± 0.38
10 | K49H | -0.628 ± 0.27
11 | K49A | -0.586 ± 0.16
12 | K49D | -0.389 ± 0.19
13 | K49I | -0.564 ± 0.29
14 | K49C | -0.81 ± 0.33
15 | Q52S | -0.196 ± 0.045
16 | Q52V | -0.603 ± 0.081
17 | Q52E | -0.512 ± 0.089
18 | Q52K | -0.442 ± 0.24
19 | Q52C | -0.203 ± 0.12
20 | D58Q | 0.041 ± 0.087
21 | D58N | -0.141 ± 0.42
22 | D58H | 0.026 ± 0.11
23 | D58L | -0.047 ± 0.071
24 | D58F | 0.001 ± 0.17

Row | Variant | abundance fitness
25 | D58W | -0.081 ± 0.08
26 | L26P | -0.374 ± 0.068
27 | L26T | -0.657 ± 0.13
28 | K66P | -0.471 ± 0.059
29 | K66R | -0.166 ± 0.048
30 | K66H | -0.459 ± 0.12
31 | K66I | -0.757 ± 0.21
32 | K66N | -0.58 ± 0.43
33 | I3K | -0.975 ± 0.38
34 | I3S | -0.767 ± 0.22
35 | I3T | -0.745 ± 0.42
36 | I3L | -0.205 ± 0.091
37 | N75P | -0.446 ± 0.07
38 | N75Y | -0.285 ± 0.14
39 | N75T | -0.245 ± 0.066
40 | N75V | -0.383 ± 0.06
41 | N75A | -0.281 ± 0.071
42 | Q13G | -0.365 ± 0.13
43 | C18Q | -0.316 ± 0.11
44 | C18L | -0.519 ± 0.072
45 | C18Y | -0.795 ± 0.22
46 | C18T | 0.158 ± 0.084
47 | C18I | -0.384 ± 0.12
48 | C18R | -0.559 ± 0.071

Row | Variant | abundance fitness
49 | C18S | -0.24 ± 0.061
50 | E8S | -0.276 ± 0.068
51 | E8F | -0.691 ± 0.32
52 | E8Q | -0.569 ± 0.11
53 | E8D | 0.031 ± 0.24
54 | E8H | -0.884 ± 0.28
55 | K43H | -0.109 ± 0.28
56 | K43L | -0.008 ± 0.075
57 | K43C | -0.219 ± 0.22
58 | K43R | 0.013 ± 0.061
59 | A65H | -0.44 ± 0.081
60 | A65S | -0.457 ± 0.062
61 | A65T | -0.85 ± 0.12
62 | A65F | -1.12 ± 0.23
63 | D36P | -0.459 ± 0.065
64 | D36G | -0.551 ± 0.1
65 | D36A | -0.267 ± 0.11
66 | D36T | -0.244 ± 0.11
67 | D36K | -0.545 ± 0.14
68 | L31Y | -0.601 ± 0.24
69 | L31W | -0.949 ± 0.16
70 | L31K | -0.574 ± 0.2
71 | L31D | -0.456 ± 0.2
72 | K71E | -0.21 ± 0.11

Row | Variant | abundance fitness
73 | K71I | -0.122 ± 0.11
74 | K71N | -0.157 ± 0.25
75 | K71H | 0.078 ± 0.11
76 | K71W | -1.09 ± 0.34
77 | K71R | -0.612 ± 0.05
78 | T57C | 0.125 ± 0.11
79 | T57D | -0.28 ± 0.078
80 | T57G | -0.004 ± 0.041
81 | T57N | -0.684 ± 0.37
82 | T57E | -0.082 ± 0.14
83 | Q70D | -0.206 ± 0.3
84 | Q70P | -0.567 ± 0.079
85 | Q70Y | -0.776 ± 0.39
86 | Q70A | -0.072 ± 0.058
87 | K76E | -0.19 ± 0.14
88 | K76Y | -0.272 ± 0.15
89 | K76D | -0.192 ± 0.14
90 | K76A | 0.008 ± 0.087
91 | Q60T | -0.412 ± 0.08
92 | Q60Y | -0.008 ± 0.11
93 | Q60E | -0.021 ± 0.17
94 | Q60L | -0.321 ± 0.055
95 | Q60P | -0.283 ± 0.06
96 | Q60N | -0.353 ± 0.1

Row | Variant | abundance fitness
97 | E38H | -0.06 ± 0.13
98 | E38A | -0.129 ± 0.075
99 | E38K | -0.216 ± 0.2
100 | E38R | -0.227 ± 0.072
101 | E38C | -0.719 ± 0.13
102 | E38T | -0.157 ± 0.076
103 | I68L | -0.413 ± 0.077
104 | I68R | -0.695 ± 0.07
105 | I68N | -0.459 ± 0.26
106 | I68A | -0.367 ± 0.081
107 | I68M | -0.201 ± 0.14
108 | I68H | -0.508 ± 0.082
109 | L72G | -0.528 ± 0.07
110 | L72M | 0.121 ± 0.14
111 | L72Q | -0.451 ± 0.15
112 | L72F | -0.072 ± 0.14
113 | L72N | -0.043 ± 0.33
114 | L72A | -0.865 ± 0.14
115 | L72E | -0.283 ± 0.12
116 | S28F | -0.665 ± 0.29
117 | S28Q | 0.041 ± 0.11
118 | S28E | 0.03 ± 0.14
119 | S28W | -0.527 ± 0.14
120 | T45E | -0.364 ± 0.25

Row | Variant | abundance fitness
121 | T45A | -0.476 ± 0.082
122 | T45N | -0.011 ± 0.23
123 | T45H | -0.568 ± 0.22
124 | I59K | 0.17 ± 0.26
125 | I59V | -0.171 ± 0.2
126 | D30S | -0.166 ± 0.087
127 | D30A | -0.106 ± 0.072
128 | D30V | -0.657 ± 0.12
129 | D30E | -0.03 ± 0.089
130 | K34L | -0.079 ± 0.097
131 | K34M | -0.312 ± 0.16
132 | K34A | -0.094 ± 0.078
133 | K34V | -0.242 ± 0.13
134 | K34E | 0.024 ± 0.11
135 | K34P | 0.024 ± 0.066
136 | D9P | -0.898 ± 0.15
137 | D9S | -0.303 ± 0.07
138 | D9N | -0.731 ± 0.27
139 | E16M | -0.186 ± 0.19
140 | E16Y | -0.576 ± 0.15
141 | E16G | -0.858 ± 0.098
142 | E16L | -0.288 ± 0.072
143 | E16D | 0.014 ± 0.11
144 | R29F | 0.192 ± 0.27

Row | Variant | abundance fitness
145 | R29C | -0.403 ± 0.22
146 | R29I | -0.88 ± 0.22
147 | L27S | -0.104 ± 0.075
148 | L27K | -0.041 ± 0.13
149 | L27R | -0.157 ± 0.068
150 | L27T | -0.355 ± 0.12
151 | V50W | -0.903 ± 0.15
152 | V50Q | -0.612 ± 0.1
153 | V50D | -0.493 ± 0.22
154 | Y37A | -0.084 ± 0.067
155 | Y37N | -0.401 ± 0.14
156 | Y37M | -0.788 ± 0.2
157 | L54C | -0.45 ± 0.06
158 | L54Y | -0.814 ± 0.22
159 | L54W | -1.08 ± 0.16
160 | L54E | -0.3 ± 0.22
161 | L54K | -0.408 ± 0.25
162 | L54T | -0.925 ± 0.21
163 | I32L | -0.029 ± 0.055
164 | I32S | -0.593 ± 0.078
165 | I32P | -0.437 ± 0.071
166 | L39P | -0.635 ± 0.13
167 | L39N | -0.034 ± 0.17

From the Human Domainome abundance scans (Beltran et al. 2025)
